Reference: US20060210984A1

Experiments:
[1] = biological target: IFN-γ (human) (UniProt P01579); assay: sandwich microarray in flow cell, chemiluminescence, cytokine 1 ng/ml; Chip 2
[2] = biological target: IFN-γ (human) (UniProt P01579); assay: sandwich microarray in flow cell, chemiluminescence, cytokine 1 ng/ml, divided by chip-specific PNA calibration factor; AVG of Chips 1-5
[3] = biological target: IFN-γ (human) (UniProt P01579); assay: sandwich microarray in flow cell, chemiluminescence, cytokine 1 ng/ml; Chip 1
[4] = biological target: IFN-γ (human) (UniProt P01579); assay: sandwich microarray in flow cell, chemiluminescence, cytokine 1 ng/ml, divided by chip-specific PNA calibration factor; Chip 4
[5] = biological target: IFN-γ (human) (UniProt P01579); assay: sandwich microarray in flow cell, chemiluminescence, cytokine 1 ng/ml; Chip 4
[6] = biological target: IFN-γ (human) (UniProt P01579); assay: sandwich microarray in flow cell, chemiluminescence, cytokine 1 ng/ml; Chip 3
[7] = biological target: IFN-γ (human) (UniProt P01579); assay: sandwich microarray in flow cell, chemiluminescence, cytokine 1 ng/ml; AVG of Chips 1-5
[8] = biological target: IFN-γ (human) (UniProt P01579); assay: sandwich microarray in flow cell, chemiluminescence, cytokine 1 ng/ml, divided by chip-specific PNA calibration factor; Chip 3
[9] = biological target: IFN-γ (human) (UniProt P01579); assay: sandwich microarray in flow cell, chemiluminescence, cytokine 1 ng/ml; Chip 5
[10] = biological target: IFN-γ (human) (UniProt P01579); assay: sandwich microarray in flow cell, chemiluminescence, cytokine 1 ng/ml, divided by chip-specific PNA calibration factor; Chip 5
[11] = biological target: IFN-γ (human) (UniProt P01579); assay: sandwich microarray in flow cell, chemiluminescence, cytokine 1 ng/ml, divided by chip-specific PNA calibration factor; Chip 2
[12] = biological target: IFN-γ (human) (UniProt P01579); assay: sandwich microarray in flow cell, chemiluminescence, cytokine 1 ng/ml, divided by chip-specific PNA calibration factor; Chip 1
[13] = biological target: IL-1a (human) (UniProt P01583); assay: sandwich microarray in flow cell, chemiluminescence, cytokine 1 ng/ml; Chip 2
UniProt P01583, sequence (P01583 113-271 limits assumed): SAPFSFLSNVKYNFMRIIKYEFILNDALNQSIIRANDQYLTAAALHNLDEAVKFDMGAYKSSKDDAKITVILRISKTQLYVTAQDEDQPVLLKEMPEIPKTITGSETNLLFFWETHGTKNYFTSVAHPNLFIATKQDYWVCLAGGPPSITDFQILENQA

[14] = biological target: IL-1a (human) (UniProt P01583); assay: sandwich microarray in flow cell, chemiluminescence, cytokine 1 ng/ml, divided by chip-specific PNA calibration factor; AVG of Chips 1-5
[15] = biological target: IL-1a (human) (UniProt P01583); assay: sandwich microarray in flow cell, chemiluminescence, cytokine 1 ng/ml; Chip 1
[16] = biological target: IL-1a (human) (UniProt P01583); assay: sandwich microarray in flow cell, chemiluminescence, cytokine 1 ng/ml, divided by chip-specific PNA calibration factor; Chip 4
[17] = biological target: IL-1a (human) (UniProt P01583); assay: sandwich microarray in flow cell, chemiluminescence, cytokine 1 ng/ml; Chip 4
[18] = biological target: IL-1a (human) (UniProt P01583); assay: sandwich microarray in flow cell, chemiluminescence, cytokine 1 ng/ml; Chip 3
[19] = biological target: IL-1a (human) (UniProt P01583); assay: sandwich microarray in flow cell, chemiluminescence, cytokine 1 ng/ml; AVG of Chips 1-5
[20] = biological target: IL-1a (human) (UniProt P01583); assay: sandwich microarray in flow cell, chemiluminescence, cytokine 1 ng/ml, divided by chip-specific PNA calibration factor; Chip 3
[21] = biological target: IL-1a (human) (UniProt P01583); assay: sandwich microarray in flow cell, chemiluminescence, cytokine 1 ng/ml; Chip 5
[22] = biological target: IL-1a (human) (UniProt P01583); assay: sandwich microarray in flow cell, chemiluminescence, cytokine 1 ng/ml, divided by chip-specific PNA calibration factor; Chip 5
[23] = biological target: IL-1a (human) (UniProt P01583); assay: sandwich microarray in flow cell, chemiluminescence, cytokine 1 ng/ml, divided by chip-specific PNA calibration factor; Chip 2
[24] = biological target: IL-1a (human) (UniProt P01583); assay: sandwich microarray in flow cell, chemiluminescence, cytokine 1 ng/ml, divided by chip-specific PNA calibration factor; Chip 1
[25] = biological target: IL-1b (human) (UniProt P01584); assay: sandwich microarray in flow cell, chemiluminescence, cytokine 1 ng/ml; Chip 2
UniProt P01584, sequence (P01584 117-269 limits assumed): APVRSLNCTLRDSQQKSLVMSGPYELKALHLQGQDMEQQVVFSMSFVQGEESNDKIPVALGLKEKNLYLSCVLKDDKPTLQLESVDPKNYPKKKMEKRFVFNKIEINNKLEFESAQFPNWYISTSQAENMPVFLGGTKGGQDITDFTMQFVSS

[26] = biological target: IL-1b (human) (UniProt P01584); assay: sandwich microarray in flow cell, chemiluminescence, cytokine 1 ng/ml, divided by chip-specific PNA calibration factor; AVG of Chips 1-5
[27] = biological target: IL-1b (human) (UniProt P01584); assay: sandwich microarray in flow cell, chemiluminescence, cytokine 1 ng/ml; Chip 1
[28] = biological target: IL-1b (human) (UniProt P01584); assay: sandwich microarray in flow cell, chemiluminescence, cytokine 1 ng/ml, divided by chip-specific PNA calibration factor; Chip 4
[29] = biological target: IL-1b (human) (UniProt P01584); assay: sandwich microarray in flow cell, chemiluminescence, cytokine 1 ng/ml; Chip 4
[30] = biological target: IL-1b (human) (UniProt P01584); assay: sandwich microarray in flow cell, chemiluminescence, cytokine 1 ng/ml; Chip 3
[31] = biological target: IL-1b (human) (UniProt P01584); assay: sandwich microarray in flow cell, chemiluminescence, cytokine 1 ng/ml; AVG of Chips 1-5
[32] = biological target: IL-1b (human) (UniProt P01584); assay: sandwich microarray in flow cell, chemiluminescence, cytokine 1 ng/ml, divided by chip-specific PNA calibration factor; Chip 3
[33] = biological target: IL-1b (human) (UniProt P01584); assay: sandwich microarray in flow cell, chemiluminescence, cytokine 1 ng/ml; Chip 5
[34] = biological target: IL-1b (human) (UniProt P01584); assay: sandwich microarray in flow cell, chemiluminescence, cytokine 1 ng/ml, divided by chip-specific PNA calibration factor; Chip 5
[35] = biological target: IL-1b (human) (UniProt P01584); assay: sandwich microarray in flow cell, chemiluminescence, cytokine 1 ng/ml, divided by chip-specific PNA calibration factor; Chip 2
[36] = biological target: IL-1b (human) (UniProt P01584); assay: sandwich microarray in flow cell, chemiluminescence, cytokine 1 ng/ml, divided by chip-specific PNA calibration factor; Chip 1
[37] = biological target: IL-2 (human) (UniProt P60568); assay: sandwich microarray in flow cell, chemiluminescence, cytokine 1 ng/ml; Chip 2
UniProt P60568, sequence (P60568 21-153 limits assumed): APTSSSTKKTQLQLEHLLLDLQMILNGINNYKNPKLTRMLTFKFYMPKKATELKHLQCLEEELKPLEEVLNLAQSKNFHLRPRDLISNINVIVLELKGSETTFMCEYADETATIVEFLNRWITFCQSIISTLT

[38] = biological target: IL-2 (human) (UniProt P60568); assay: sandwich microarray in flow cell, chemiluminescence, cytokine 1 ng/ml, divided by chip-specific PNA calibration factor; AVG of Chips 1-5
[39] = biological target: IL-2 (human) (UniProt P60568); assay: sandwich microarray in flow cell, chemiluminescence, cytokine 1 ng/ml; Chip 1
[40] = biological target: IL-2 (human) (UniProt P60568); assay: sandwich microarray in flow cell, chemiluminescence, cytokine 1 ng/ml, divided by chip-specific PNA calibration factor; Chip 4
[41] = biological target: IL-2 (human) (UniProt P60568); assay: sandwich microarray in flow cell, chemiluminescence, cytokine 1 ng/ml; Chip 4
[42] = biological target: IL-2 (human) (UniProt P60568); assay: sandwich microarray in flow cell, chemiluminescence, cytokine 1 ng/ml; Chip 3
[43] = biological target: IL-2 (human) (UniProt P60568); assay: sandwich microarray in flow cell, chemiluminescence, cytokine 1 ng/ml; AVG of Chips 1-5
[44] = biological target: IL-2 (human) (UniProt P60568); assay: sandwich microarray in flow cell, chemiluminescence, cytokine 1 ng/ml, divided by chip-specific PNA calibration factor; Chip 3
[45] = biological target: IL-2 (human) (UniProt P60568); assay: sandwich microarray in flow cell, chemiluminescence, cytokine 1 ng/ml; Chip 5
[46] = biological target: IL-2 (human) (UniProt P60568); assay: sandwich microarray in flow cell, chemiluminescence, cytokine 1 ng/ml, divided by chip-specific PNA calibration factor; Chip 5
[47] = biological target: IL-2 (human) (UniProt P60568); assay: sandwich microarray in flow cell, chemiluminescence, cytokine 1 ng/ml, divided by chip-specific PNA calibration factor; Chip 2
[48] = biological target: IL-2 (human) (UniProt P60568); assay: sandwich microarray in flow cell, chemiluminescence, cytokine 1 ng/ml, divided by chip-specific PNA calibration factor; Chip 1
[49] = biological target: IL-12p70 (human) (UniProt P29459); assay: sandwich microarray in flow cell, chemiluminescence, cytokine 1 ng/ml; Chip 2
UniProt P29459, sequence (P29459 23-219 limits assumed, chain 1 of 2): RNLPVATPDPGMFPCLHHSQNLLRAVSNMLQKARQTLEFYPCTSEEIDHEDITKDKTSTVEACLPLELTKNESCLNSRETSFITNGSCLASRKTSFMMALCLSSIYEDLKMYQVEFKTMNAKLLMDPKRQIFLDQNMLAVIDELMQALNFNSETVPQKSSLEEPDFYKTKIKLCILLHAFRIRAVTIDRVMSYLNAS
UniProt P29459, sequence (P29460 23-328 limits assumed, chain 2 of 2, further chain): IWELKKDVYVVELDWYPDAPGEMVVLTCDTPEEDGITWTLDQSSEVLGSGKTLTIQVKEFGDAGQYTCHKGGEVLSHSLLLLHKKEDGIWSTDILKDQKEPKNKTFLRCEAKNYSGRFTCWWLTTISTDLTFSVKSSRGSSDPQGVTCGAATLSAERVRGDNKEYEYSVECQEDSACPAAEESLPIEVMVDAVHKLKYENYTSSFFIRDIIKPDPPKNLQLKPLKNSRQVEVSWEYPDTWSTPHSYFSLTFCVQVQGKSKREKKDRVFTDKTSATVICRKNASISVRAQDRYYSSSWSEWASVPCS

[50] = biological target: IL-12p70 (human) (UniProt P29459); assay: sandwich microarray in flow cell, chemiluminescence, cytokine 1 ng/ml, divided by chip-specific PNA calibration factor; AVG of Chips 1-5
[51] = biological target: IL-12p70 (human) (UniProt P29459); assay: sandwich microarray in flow cell, chemiluminescence, cytokine 1 ng/ml; Chip 1
[52] = biological target: IL-12p70 (human) (UniProt P29459); assay: sandwich microarray in flow cell, chemiluminescence, cytokine 1 ng/ml, divided by chip-specific PNA calibration factor; Chip 4
[53] = biological target: IL-12p70 (human) (UniProt P29459); assay: sandwich microarray in flow cell, chemiluminescence, cytokine 1 ng/ml; Chip 4
[54] = biological target: IL-12p70 (human) (UniProt P29459); assay: sandwich microarray in flow cell, chemiluminescence, cytokine 1 ng/ml; Chip 3
[55] = biological target: IL-12p70 (human) (UniProt P29459); assay: sandwich microarray in flow cell, chemiluminescence, cytokine 1 ng/ml; AVG of Chips 1-5
[56] = biological target: IL-12p70 (human) (UniProt P29459); assay: sandwich microarray in flow cell, chemiluminescence, cytokine 1 ng/ml, divided by chip-specific PNA calibration factor; Chip 3
[57] = biological target: IL-12p70 (human) (UniProt P29459); assay: sandwich microarray in flow cell, chemiluminescence, cytokine 1 ng/ml; Chip 5
[58] = biological target: IL-12p70 (human) (UniProt P29459); assay: sandwich microarray in flow cell, chemiluminescence, cytokine 1 ng/ml, divided by chip-specific PNA calibration factor; Chip 5
[59] = biological target: IL-12p70 (human) (UniProt P29459); assay: sandwich microarray in flow cell, chemiluminescence, cytokine 1 ng/ml, divided by chip-specific PNA calibration factor; Chip 2
[60] = biological target: IL-12p70 (human) (UniProt P29459); assay: sandwich microarray in flow cell, chemiluminescence, cytokine 1 ng/ml, divided by chip-specific PNA calibration factor; Chip 1

UniProt P01579, sequence (P01579 24-166 limits assumed): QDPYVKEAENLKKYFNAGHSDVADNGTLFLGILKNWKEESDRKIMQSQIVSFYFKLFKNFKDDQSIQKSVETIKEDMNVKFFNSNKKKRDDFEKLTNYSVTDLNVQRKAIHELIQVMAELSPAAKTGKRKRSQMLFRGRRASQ

Substance: MAb IFN-g (monoclonal capture antibody of the anti-human IFN-γ OptEIA matched pair, BD Biosciences-Pharmingen)
- chemiluminescent spot intensity (Un-Calibrated Data) [1]: 0
- chemiluminescent spot intensity (Calibrated Data) [2]: 2.88
- chemiluminescent spot intensity (Un-Calibrated Data) [3]: 0
- chemiluminescent spot intensity (Calibrated Data) [4]: 4.39
- chemiluminescent spot intensity (Un-Calibrated Data) [5]: 2
- chemiluminescent spot intensity (Un-Calibrated Data) [6]: 10
- chemiluminescent spot intensity (Un-Calibrated Data) [7]: 2.4
- chemiluminescent spot intensity (Calibrated Data) [8]: 10
- chemiluminescent spot intensity (Un-Calibrated Data) [9]: 0
- chemiluminescent spot intensity (Calibrated Data) [10]: 0
- chemiluminescent spot intensity (Calibrated Data) [11]: 0
- chemiluminescent spot intensity (Calibrated Data) [12]: 0

Substance: MAb IL-1a (monoclonal capture antibody of the anti-human IL-1a OptEIA matched pair, BD Biosciences-Pharmingen)
- chemiluminescent spot intensity (Un-Calibrated Data) [13]: 95
- chemiluminescent spot intensity (Calibrated Data) [14]: 321
- chemiluminescent spot intensity (Un-Calibrated Data) [15]: 175
- chemiluminescent spot intensity (Calibrated Data) [16]: 301
- chemiluminescent spot intensity (Un-Calibrated Data) [17]: 137
- chemiluminescent spot intensity (Un-Calibrated Data) [18]: 312
- chemiluminescent spot intensity (Un-Calibrated Data) [19]: 168
- chemiluminescent spot intensity (Calibrated Data) [20]: 312
- chemiluminescent spot intensity (Un-Calibrated Data) [21]: 121
- chemiluminescent spot intensity (Calibrated Data) [22]: 373
- chemiluminescent spot intensity (Calibrated Data) [23]: 325
- chemiluminescent spot intensity (Calibrated Data) [24]: 293

Substance: MAb IL-1b (monoclonal capture antibody of the anti-human IL-1b OptEIA matched pair, BD Biosciences-Pharmingen)
- chemiluminescent spot intensity (Un-Calibrated Data) [25]: 150
- chemiluminescent spot intensity (Calibrated Data) [26]: 477
- chemiluminescent spot intensity (Un-Calibrated Data) [27]: 297
- chemiluminescent spot intensity (Calibrated Data) [28]: 485
- chemiluminescent spot intensity (Un-Calibrated Data) [29]: 221
- chemiluminescent spot intensity (Un-Calibrated Data) [30]: 486
- chemiluminescent spot intensity (Un-Calibrated Data) [31]: 257
- chemiluminescent spot intensity (Calibrated Data) [32]: 486
- chemiluminescent spot intensity (Un-Calibrated Data) [33]: 131
- chemiluminescent spot intensity (Calibrated Data) [34]: 404
- chemiluminescent spot intensity (Calibrated Data) [35]: 513
- chemiluminescent spot intensity (Calibrated Data) [36]: 498

Substance: MAb IL-2 (monoclonal capture antibody of the anti-human IL-2 OptEIA matched pair, BD Biosciences-Pharmingen)
- chemiluminescent spot intensity (Un-Calibrated Data) [37]: 127
- chemiluminescent spot intensity (Calibrated Data) [38]: 423
- chemiluminescent spot intensity (Un-Calibrated Data) [39]: 251
- chemiluminescent spot intensity (Calibrated Data) [40]: 430
- chemiluminescent spot intensity (Un-Calibrated Data) [41]: 196
- chemiluminescent spot intensity (Un-Calibrated Data) [42]: 441
- chemiluminescent spot intensity (Un-Calibrated Data) [43]: 228
- chemiluminescent spot intensity (Calibrated Data) [44]: 441
- chemiluminescent spot intensity (Un-Calibrated Data) [45]: 126
- chemiluminescent spot intensity (Calibrated Data) [46]: 389
- chemiluminescent spot intensity (Calibrated Data) [47]: 434
- chemiluminescent spot intensity (Calibrated Data) [48]: 421

Substance: MAb IL-12 p70 (monoclonal capture antibody of the anti-human IL-12p70 OptEIA matched pair, BD Biosciences-Pharmingen)
- chemiluminescent spot intensity (Un-Calibrated Data) [49]: 255
- chemiluminescent spot intensity (Calibrated Data) [50]: 903
- chemiluminescent spot intensity (Un-Calibrated Data) [51]: 554
- chemiluminescent spot intensity (Calibrated Data) [52]: 872
- chemiluminescent spot intensity (Un-Calibrated Data) [53]: 397
- chemiluminescent spot intensity (Un-Calibrated Data) [54]: 956
- chemiluminescent spot intensity (Un-Calibrated Data) [55]: 490
- chemiluminescent spot intensity (Calibrated Data) [56]: 956
- chemiluminescent spot intensity (Un-Calibrated Data) [57]: 288
- chemiluminescent spot intensity (Calibrated Data) [58]: 888
- chemiluminescent spot intensity (Calibrated Data) [59]: 872
- chemiluminescent spot intensity (Calibrated Data) [60]: 929
